Data as given in paper PMC9926122.

Molecular target: T1, recombinant EB1 (HS-AFM and microtubule experiments) (human), Q15691
T1 chain: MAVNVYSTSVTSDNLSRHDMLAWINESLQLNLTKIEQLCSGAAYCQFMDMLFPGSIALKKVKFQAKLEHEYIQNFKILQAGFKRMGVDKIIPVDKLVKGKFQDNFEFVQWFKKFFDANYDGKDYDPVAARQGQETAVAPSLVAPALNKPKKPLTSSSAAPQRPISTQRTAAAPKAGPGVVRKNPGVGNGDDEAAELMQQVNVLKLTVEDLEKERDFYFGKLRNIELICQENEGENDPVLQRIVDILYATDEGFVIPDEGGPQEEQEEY
Assay: high-speed atomic force microscopy (HS-AFM); proteins (10-30 nM; 10 nM in the frames shown) in BRB80 buffer (80 mM Pipes, 1 mM EGTA, 1 mM MgCl2, pH 6.9) on mica, tapping mode, 150 ms per frame; EB1 alone, Ska1 alone and their mixture
Settings: remark: other sources report otherwise

stoichiometry N: 2
B1: recombinant EB1 (HS-AFM and microtubule experiments), Q15691 1-268 (natural protein)
chain: T1 chain
